# Tests used:
# [1] = molecular target: recombinant human VEGF165 (human, UniProt P15692 207-395); test: cell-based or functional assay
# [2] = molecular target: recombinant human PDGF-BB (human, UniProt P01127 82-190); test: cell-based or functional assay
# Sequence of recombinant human PDGF-BB (P01127 82-190 limits assumed): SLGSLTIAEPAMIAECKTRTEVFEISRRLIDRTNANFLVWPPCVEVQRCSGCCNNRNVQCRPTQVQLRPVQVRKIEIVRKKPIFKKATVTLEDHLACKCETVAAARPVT
# Sequence of recombinant human VEGF165 (P15692 other isoform, or with tags, fused parts or gaps limits assumed): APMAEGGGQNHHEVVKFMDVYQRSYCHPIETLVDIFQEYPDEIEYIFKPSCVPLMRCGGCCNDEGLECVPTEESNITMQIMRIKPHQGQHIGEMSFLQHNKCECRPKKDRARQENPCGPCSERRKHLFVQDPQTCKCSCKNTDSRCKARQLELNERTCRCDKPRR
Binder,Potency IC50 (nM) HMVEC-d hVEGF165 [1],Potency IC50 (nM) NIH-3T3 hPDGF-BB [2]
"1B10.1_GS_9E8.4 (bispecific antibody, human IgG1, kappa, L234A L235A) heavy: EVQLVESGGGLVQPGGSLRLSCAASGFSFSKYDMAWFRQAPGKGLEWVASITTSGVGTYYRDSVKGRFTVSRDNAKSTLYLQMNSLRAEDTAVYYCARGYGAMDAWGQGTTVTVSSGGGGSGGGGSEVTLRESGPALVKPTQTLTLTCTFSGFSLSTYGMGVGWIRQPPGKALEWLANIWWDDDKYYNPSLKNRLTISKDTSKNQVVLTMTNMDPVDTATYYCARIESIGTTYSFDYWGQGTMVTVSSASTKGPSVFPLAPSSKSTSGGTAALGCLVKDYFPEPVTVSWNSGALTSGVHTFPAVLQSSGLYSLSSVVTVPSSSLGTQTYICNVNHKPSNTKVDKKVEPKSCDKTHTCPPCPAPEAAGGPSVFLFPPKPKDTLMISRTPEVTCVVVDVSHEDPEVKFNWYVDGVEVHNAKTKPREEQYNSTYRVVSVLTVLHQDWLNGKEYKCKVSNKALPAPIEKTISKAKGQPREPQVYTLPPSREEMTKNQVSLTCLVKGFYPSDIAVEWESNGQPENNYKTTPPVLDSDGSFFLYSKLTVDKSRWQQGNVFSCSVMHEALHNAYTQKSLSLSPGK light: DIQMTQSPSSLSASVGDRVTITCKASQDIDDYLSWYQQKPGKSPKLVIYAATRLADGVPSRFSGSGSGTDYTLTISSLQPEDFATYYCLQSSSTPWTFGGGTKVEIKGGSGGGGSGGEFVLTQSPGTLSLSPGERATLSCERSSGDIGDSYVSWYQQKPGQAPRLVIYADDQRPSGIPDRFSGSGSGTDFTLTISRLEPEDFAVYYCQSYDINIDIVFGGGTKVEIKRTVAAPSVFIFPPSDEQLKSGTASVVCLLNNFYPREAKVQWKVDNALQSGNSQESVTEQDSKDSTYSLSSTLTLSKADYEKHKVYACEVTHQGLSSPVTKSFNRGEC",0.127 nM,0.678 nM
"4G8.5_GS_9E8.4 (bispecific antibody, human IgG1, kappa, L234A L235A) heavy: EIQLVQSGSELKKPGASVKVSCKASGYTFTNYGMYWVRQAPGQGLEYMGWINTETGKPTYADDFKGRFVFSLDTSVSTAYLQISSLKAEDTAVYFCARTNYYYRSYIFYFDYWGQGTMVTVSSGGGGSGGGGSEVTLRESGPALVKPTQTLTLTCTFSGFSLSTYGMGVGWIRQPPGKALEWLANIWWDDDKYYNPSLKNRLTISKDTSKNQVVLTMTNMDPVDTATYYCARIESIGTTYSFDYWGQGTMVTVSSASTKGPSVFPLAPSSKSTSGGTAALGCLVKDYFPEPVTVSWNSGALTSGVHTFPAVLQSSGLYSLSSVVTVPSSSLGTQTYICNVNHKPSNTKVDKKVEPKSCDKTHTCPPCPAPEAAGGPSVFLFPPKPKDTLMISRTPEVTCVVVDVSHEDPEVKFNWYVDGVEVHNAKTKPREEQYNSTYRVVSVLTVLHQDWLNGKEYKCKVSNKALPAPIEKTISKAKGQPREPQVYTLPPSREEMTKNQVSLTCLVKGFYPSDIAVEWESNGQPENNYKTTPPVLDSDGSFFLYSKLTVDKSRWQQGNVFSCSVMHEALHNAYTQKSLSLSPGK light: ATQLTQSPSLSASVGDRVTITCRASESVSTHMHWYQQKPGKQPKLLIYGASNLESGVPSRFSGSGSGTDFTLTISSLQPEDFATYFCQQSWNDPFTFGQGTKLEIKGGSGGGGSGGEFVLTQSPGTLSLSPGERATLSCERSSGDIGDSYVSWYQQKPGQAPRLVIYADDQRPSGIPDRFSGSGSGTDFTLTISRLEPEDFAVYYCQSYDINIDIVFGGGTKVEIKRTVAAPSVFIFPPSDEQLKSGTASVVCLLNNFYPREAKVQWKVDNALQSGNSQESVTEQDSKDSTYSLSSTLTLSKADYEKHKVYACEVTHQGLSSPVTKSFNRGEC",0.069 nM,4.83 nM
"9E8.4_GS_1E3.4 (bispecific antibody, human IgG1, kappa, L234A L235A) heavy: EVTLRESGPALVKPTQTLTLTCTFSGFSLSTYGMGVGWIRQPPGKALEWLANIWWDDDKYYNPSLKNRLTISKDTSKNQVVLTMTNMDPVDTATYYCARIESIGTTYSFDYWGQGTMVTVSSGGGGSGGGGSEIQLVQSGSELKKPGASVKVSCKASGYPFTNSGMYWVKQAPGQGLEYMGWINTEAGKPTYADDFKGRFVFSLDTSVSTAYLQISSLKAEDTAVYFCARWGYISDNSYGWFDYWGQGTLVTVSSASTKGPSVFPLAPSSKSTSGGTAALGCLVKDYFPEPVTVSWNSGALTSGVHTFPAVLQSSGLYSLSSVVTVPSSSLGTQTYICNVNHKPSNTKVDKKVEPKSCDKTHTCPPCPAPEAAGGPSVFLFPPKPKDTLMISRTPEVTCVVVDVSHEDPEVKFNWYVDGVEVHNAKTKPREEQYNSTYRVVSVLTVLHQDWLNGKEYKCKVSNKALPAPIEKTISKAKGQPREPQVYTLPPSREEMTKNQVSLTCLVKGFYPSDIAVEWESNGQPENNYKTTPPVLDSDGSFFLYSKLTVDKSRWQQGNVFSCSVMHEALHNAYTQKSLSLSPGK light: EFVLTQSPGTLSLSPGERATLSCERSSGDIGDSYVSWYQQKPGQAPRLVIYADDQRPSGIPDRFSGSGSGTDFTLTISRLEPEDFAVYYCQSYDINIDIVFGGGTKVEIKGGSGGGGSGGATQLTQSPSSLSASVGDRVTISCRASEGVYSYMHWYQQKPGKQPKLLIYKASNLASGVPSRFSGSGSGTDFTLTISSLQPEDFATYFCHQNWNDPLTFGQGTKLEIKRTVAAPSVFIFPPSDEQLKSGTASVVCLLNNFYPREAKVQWKVDNALQSGNSQESVTEQDSKDSTYSLSSTLTLSKADYEKHKVYACEVTHQGLSSPVTKSFNRGEC",0.897 nM,0.131 nM
"9E10.1_GS_9E8.4 (bispecific antibody, human IgG1, kappa, L234A L235A) heavy: EIQLVQSGSELKKPGASVKVSCKASGYTFTNYGMYWVKQAPGQGLEYMGWIDTETGRPTYADDFKGRFVFSLDTSVSTAYLQISSLKAEDTAVYFCARWSGDTTGIRGPWFAYWGQGTLVTVSSGGGGSGGGGSEVTLRESGPALVKPTQTLTLTCTFSGFSLSTYGMGVGWIRQPPGKALEWLANIWWDDDKYYNPSLKNRLTISKDTSKNQVVLTMTNMDPVDTATYYCARIESIGTTYSFDYWGQGTMVTVSSASTKGPSVFPLAPSSKSTSGGTAALGCLVKDYFPEPVTVSWNSGALTSGVHTFPAVLQSSGLYSLSSVVTVPSSSLGTQTYICNVNHKPSNTKVDKKVEPKSCDKTHTCPPCPAPEAAGGPSVFLFPPKPKDTLMISRTPEVTCVVVDVSHEDPEVKFNWYVDGVEVHNAKTKPREEQYNSTYRVVSVLTVLHQDWLNGKEYKCKVSNKALPAPIEKTISKAKGQPREPQVYTLPPSREEMTKNQVSLTCLVKGFYPSDIAVEWESNGQPENNYKTTPPVLDSDGSFFLYSKLTVDKSRWQQGNVFSCSVMHEALHNAYTQKSLSLSPGK light: DIRMTQSPSSLSASVGDRVTIECLASEDIYSDLAWYQQKPGKSPKLLIYNANGLQNGVPSRFSGSGSGTDYSLTISSLQPEDVATYFCQQYNYFPGTFGQGTKLEIKGGSGGGGSGGEFVLTQSPGTLSLSPGERATLSCERSSGDIGDSYVSWYQQKPGQAPRLVIYADDQRPSGIPDRFSGSGSGTDFTLTISRLEPEDFAVYYCQSYDINIDIVFGGGTKVEIKRTVAAPSVFIFPPSDEQLKSGTASVVCLLNNFYPREAKVQWKVDNALQSGNSQESVTEQDSKDSTYSLSSTLTLSKADYEKHKVYACEVTHQGLSSPVTKSFNRGEC",0.059 nM,1.91 nM

# The remaining lines, values ahead:
Potency IC50 (nM) HMVEC-d hVEGF165 [1],Potency IC50 (nM) NIH-3T3 hPDGF-BB [2],Binder
0.05 nM,0.037 nM,"9E10.6_GS_CL-33675 (bispecific antibody, human IgG1, kappa, L234A L235A) heavy: EVQLVQSGAEVKKPGSSVKVSCKASGYTFTNYGMYWVRQAPGQGLEWMGWIDTETGRPTYADDFKGRFTFTADKSTSTAYMELSSLRSEDTAVYYCARWSGDTTGIRGPWFAYWGQGTLVTVSSGGGGSGGGGSEVTLRESGPALVKPTQTLTLTCTFSGFSLSTYGMGVGWIRQPPGKALEWLANIWWDDDKYYNPSLKNRLTISKDTSKNQVVLTMTNMDPVDTATYYCARIESSGPKYSFDYWGQGTMVTVSSASTKGPSVFPLAPSSKSTSGGTAALGCLVKDYFPEPVTVSWNSGALTSGVHTFPAVLQSSGLYSLSSVVTVPSSSLGTQTYICNVNHKPSNTKVDKKVEPKSCDKTHTCPPCPAPEAAGGPSVFLFPPKPKDTLMISRTPEVTCVVVDVSHEDPEVKFNWYVDGVEVHNAKTKPREEQYNSTYRVVSVLTVLHQDWLNGKEYKCKVSNKALPAPIEKTISKAKGQPREPQVYTLPPSREEMTKNQVSLTCLVKGFYPSDIAVEWESNGQPENNYKTTPPVLDSDGSFFLYSKLTVDKSRWQQGNVFSCSVMHEALHNAYTQKSLSLSPGK light: DIRMTQSPSSLSASVGDRVTITCLASEDIYSDLAWYQQKPGKSPKLLIYNANGLQNGVPSRFSGSGSGTDYTLTISSLQPEDVATYFCQQYNYFPGTFGQGTKLEIKGGSGGGGSGGEIVLTQSPGTLSLSPGERATLSCRASSGSIWYSFVSWYQQKPGQAPRLLIYADDQRASGIPDRFSGSGSGTDFTLTISRLEPEDFAVYYCQSYGINIDVVFGGGTKVEIKRTVAAPSVFIFPPSDEQLKSGTASVVCLLNNFYPREAKVQWKVDNALQSGNSQESVTEQDSKDSTYSLSSTLTLSKADYEKHKVYACEVTHQGLSSPVTKSFNRGEC"
0.049 nM,1.14 nM,"9E10.6_GS_9E8.4 (bispecific antibody, human IgG1, kappa, L234A L235A) heavy: EVQLVQSGAEVKKPGSSVKVSCKASGYTFTNYGMYWVRQAPGQGLEWMGWIDTETGRPTYADDFKGRFTFTADKSTSTAYMELSSLRSEDTAVYYCARWSGDTTGIRGPWFAYWGQGTLVTVSSGGGGSGGGGSEVTLRESGPALVKPTQTLTLTCTFSGFSLSTYGMGVGWIRQPPGKALEWLANIWWDDDKYYNPSLKNRLTISKDTSKNQVVLTMTNMDPVDTATYYCARIESIGTTYSFDYWGQGTMVTVSSASTKGPSVFPLAPSSKSTSGGTAALGCLVKDYFPEPVTVSWNSGALTSGVHTFPAVLQSSGLYSLSSVVTVPSSSLGTQTYICNVNHKPSNTKVDKKVEPKSCDKTHTCPPCPAPEAAGGPSVFLFPPKPKDTLMISRTPEVTCVVVDVSHEDPEVKFNWYVDGVEVHNAKTKPREEQYNSTYRVVSVLTVLHQDWLNGKEYKCKVSNKALPAPIEKTISKAKGQPREPQVYTLPPSREEMTKNQVSLTCLVKGFYPSDIAVEWESNGQPENNYKTTPPVLDSDGSFFLYSKLTVDKSRWQQGNVFSCSVMHEALHNAYTQKSLSLSPGK light: DIRMTQSPSSLSASVGDRVTITCLASEDIYSDLAWYQQKPGKSPKLLIYNANGLQNGVPSRFSGSGSGTDYTLTISSLQPEDVATYFCQQYNYFPGTFGQGTKLEIKGGSGGGGSGGEFVLTQSPGTLSLSPGERATLSCERSSGDIGDSYVSWYQQKPGQAPRLVIYADDQRPSGIPDRFSGSGSGTDFTLTISRLEPEDFAVYYCQSYDINIDIVFGGGTKVEIKRTVAAPSVFIFPPSDEQLKSGTASVVCLLNNFYPREAKVQWKVDNALQSGNSQESVTEQDSKDSTYSLSSTLTLSKADYEKHKVYACEVTHQGLSSPVTKSFNRGEC"

# Reference: patent US20170015742A1 (published 2017)
